Consider 1 protein from article doi:10.1101/2023.06.05.543797, “Crystal structure of SUN1-KASH6 reveals an asymmetric LINC complex architecture compatible with nuclear membrane insertion” (bioRxiv, 2023).

The data set concerns the molecule itself. Nature of the data set: crystal structure; co-expressed and co-purified SUN1-KASH6 complex at 12 mg/ml; sitting drops, 20°C; crystals at pH 6.0 (1.7 Å) and pH 5.5 (2.0 Å and 2.3 Å).

B1: KASH domain of human JAW1/LRMP (amino-acids 515-555) (peptide, UniProt Q12912 515-555, looked up)
chain: TGQLFQKSVDAAPTQQEDSWTSLEHILWPFTRLRHNGPPPV
notes: JAW1/LRMP (lymphoid restricted membrane protein), human, KASH domain, amino-acids 515-555; also called KASH6; KASH6 peptide; not shown: His6, N-terminal, cleaved; MBP, N-terminal, cleaved
Take B1: the binding result is recorded as “binds”.
